In the supplement of paper PMC11246515:
± gives the standard deviation of the averaged measurements.

Assay: total protein half-life in vivo (active degradation + dilution); higher = more stable protein
[1] = E. coli NCM3722 delta-clpP delta-lon delta-hslV, growth: N-lim chemostat, doubling time 6 h
[2] = E. coli NCM3722 delta-clpP, growth: N-lim chemostat, doubling time 6 h
[3] = E. coli NCM3722 delta-hslV, growth: N-lim chemostat, doubling time 6 h
[4] = E. coli NCM3722 delta-smpB, growth: N-lim chemostat, doubling time 6 h
[5] = wild type E. coli NCM3722, growth: C-lim chemostat, doubling time 3 h
[6] = wild type E. coli NCM3722, growth: C-lim chemostat, doubling time 6 h
[7] = wild type E. coli NCM3722, growth: C-lim chemostat, doubling time 12 h
[8] = wild type E. coli NCM3722, growth: N-lim chemostat, doubling time 6 h
[9] = wild type E. coli NCM3722, growth: N-lim chemostat, doubling time 12 h
[10] = wild type E. coli NCM3722, growth: P-lim chemostat, doubling time 6 h
[11] = wild type E. coli NCM3722, growth: P-lim chemostat, doubling time 12 h
[12] = E. coli NCM3722 delta-lon, growth: N-lim chemostat, doubling time 6 h

| Sequence | total protein half-life in vivo [1] [h] | total protein half-life in vivo [2] [h] | total protein half-life in vivo [3] [h] | total protein half-life in vivo [4] [h] | total protein half-life in vivo [5] [h] | total protein half-life in vivo [6] [h] | total protein half-life in vivo [7] [h] | total protein half-life in vivo [8] [h] | total protein half-life in vivo [9] [h] | total protein half-life in vivo [10] [h] | total protein half-life in vivo [11] [h] | total protein half-life in vivo [12] [h] |
| --- | --- | --- | --- | --- | --- | --- | --- | --- | --- | --- | --- | --- |
| MKTNIKVFTSTGELTTLGRELGKGGEGAVYDIEEFVDSVAKIYHTPPPALKQDKLAFMAATADAQLLNYVAWPQATLHGGRGGKVIGFMMPKVSGKEPIHMIYSPAHRRQSYPHCAWDFLLYVARNIASSFATVHEHGHVVGDVNQNSFMVGRDSKVVLIDSDSFQINANGTLHLCEVGVSHFTPPELQTLPSFVGFERTENHDNFGLALLIFHVLFGGRHPYSGVPLISDAGNALETDITHFRYAYASDNQRRGLKPPPRSIPLSMLPSDVEAMFQQAFTESGVATGRPTAKAWVAALDSLRQQLKKCIVSAMHVYPAHLTDCPWCALDNQGVIYFIDLGEEVITTGGNFVLAKVWAMVMASVAPPALQLPLPDHFQPTGRPLPLGLLRREYIILLEIALSALSLLLCGLQAEPRYIILVPVLAAIWIIGSLTSKAYKAEVQQRREAFNRAKMDYDHLVRQIQQVGGLEGFIAKRTMLEKMKDEILGLPEEEKRALAALHDTARERQKQKFLEGFFIDVASIPGVGPARKAALRSFGIETAADVTRRGVKQVKGFGDHLTQAVIDWKASCERRFVFRPNEAITPADRQAVMAKMTAKRHRLESALTVGATELQRFRLHAPARTMPLMEPLRQAAEKLAQAQADLSRC | 4.54 | 4.86 |  |  |  |  |  |  |  |  |  |  |
| MKFELDTTDGRARRGRLVFDRGVVETPCFMPVGTYGTVKGMTPEEVEATGAQIILGNTFHLWLRPGQEIMKLHGDLHDFMQWKGPILTDSGGFQVFSLGDIRKITEQGVHFRNPINGDPIFLDPEKSMEIQYDLGSDIVMIFDECTPYPADWDYAKRSMEMSLRWAKRSRERFDSLGNKNALFGIIQGSVYEDLRDISVKGLVDIGFDGYAVGGLAVGEPKADMHRILEHVCPQIPADKPRYLMGVGKPEDLVEGVRRGIDMFDCVMPTRNARNGHLFVTDGVVKIRNAKYKSDTGPLDPECDCYTCRNYSRAYLHHLDRCNEILGARLNTIHNLRYYQRLMAGLRKAIEEGKLESFVTDFYQRQGREVPPLNVD [P0A847] | 5.511 ± 0.011 | 5.15 ± 0.27 | 4.74 ± 0.42 | 4.12 ± 0.42 | 3.176 ± 0.02 | 6.4 ± 0.068 | 10.9 ± 0.33 | 5.08 ± 0.26 | 9.05 ± 0.3 | 6.03 ± 0.7 | 13.7 ± 1.2 |  |
| MKTLILFSTRDGQTREIASYLASELKELGIQADVANVHRIEEPQWENYDRVVIGASIRYGHYHSAFQEFVKKHATRLNSMPSAFYSVNLVARKPEKRTPQTNSYARKFLMNSQWRPDRCAVIAGALRYPRYRWYDRFMIKLIMKMSGGETDTRKEVVYTDWEQVANFAREIAHLTDKPTLK [P0ACB4] | 6.5 ± 0.98 | 6.1 ± 0.4 | 6.54 ± 0.68 | 5.74 ± 0.11 | 3.05 ± 0.23 | 5.733 ± 0.054 | 9.62 ± 0.39 | 5.4517 ± 0.0046 | 11.18 ± 0.03 | 5.69 ± 0.12 | 11.9 ± 0.72 | 6.2 ± 0.14 |
| MILFVGFLLMEIVMPQISRTALVPYSAEQMYQLVNDVQSYPQFLPGCTGSRILESTPGQMTAAVDVSKAGISKTFTTRNQLTSNQSILMNLVDGPFKKLIGGWKFTPLSQEACRIEFHLDFEFTNKLIELAFGRVFKELAANMVQAFTVRAKEVYSAR [P0AGL5] | 0.854 ± 0.18 | 0.857 | 0.542 | 0.621 ± 0.022 | 0.306 | 0.545 |  | 0.714 |  | 0.372 | 1.13 ± 0.68 | 0.962 |
| MRLVQLSRHSIAFPSPEGALREPNGLLALGGDLSPARLLMAYQRGIFPWFSPGDPILWWSPDPRAVLWPESLHISRSMKRFHKRSPYRVTMNYAFGQVIEGCASDREEGTWITRGVVEAYHRLHELGHAHSIEVWREDELVGGMYGVAQGTLFCGESMFSRMENASKTALLVFCEEFIGHGGKLIDCQVLNDHTASLGACEIPRRDYLNYLNQMRLGRLPNNFWVPRCLFSPQE [P0A8P1] |  | 4.09 ± 0.21 |  |  | 0.705 ± 0.05 |  |  |  |  |  |  |  |
| MGFLSGKRILVTGVASKLSIAYGIAQAMHREGAELAFTYQNDKLKGRVEEFAAQLGSDIVLQCDVAEDASIDTMFAELGKVWPKFDGFVHSIGFAPGDQLDGDYVNAVTREGFKIAHDISSYSFVAMAKACRSMLNPGSALLTLSYLGAERAIPNYNVMGLAKASLEANVRYMANAMGPEGVRVNAISAGPIRTLAASGIKDFRKMLAHCEAVTPIRRTVTIEDVGNSAAFLCSDLSAGISGEVVHVDGGFSIAAMNELELK [P0AEK4] | 5.4 ± 0.09 | 5.37 ± 0.42 | 5.299 ± 0.046 | 4.97 ± 0.28 | 3.26 ± 0.14 | 5.9 ± 1.1 | 11 ± 1.2 | 5.28 ± 0.18 | 10.2 ± 2 | 6.19 ± 0.08 | 13.74 ± 0.13 | 5.88 ± 0.25 |
| MYTRNLLWLVSLVSAAPLYAADVPANTPLAPQQVFRYNNHSDPGTLDPQKVEENTAAQIVLDLFEGLVWMDGEGQVQPAQAERWEILDGGKRYIFHLRSGLQWSDGQPLTAEDFVLGWQRAVDPKTASPFAGYLAQAHINNAAAIVAGKADVTSLGVKATDDRTLEVTLEQPVPWFTTMLAWPTLFPVPHHVIAKHGDSWSKPENMVYNGAFVLDQWVVNEKITARKNPKYRDAQHTVLQQVEYLALDNSVTGYNRYRAGEVDLTWVPAQQIPAIEKSLPGELRIIPRLNSEYYNFNLEKPPFNDVRVRRALYLTVDRQLIAQKVLGLRTPATTLTPPEVKGFSATTFDELQKPMSERVAMAKALLKQAGYDASHPLRFELFYNKYDLHEKTAIALSSEWKKWLGAQVTLRTMEWKTYLDARRAGDFMLSRQSWDATYNDASSFLNTLKSDSEENVGHWKNAQYDALLNQATQITDATKRNALYQQAEVIINQQAPLIPIYYQPLIKLLKPYVGGFPLHNPQDYVYSKELYIKAH |  | 5.575 ± 0.035 | 6.61 ± 1.4 | 5.64 ± 0.24 | 2.9 ± 0.11 | 5.96 ± 0.64 | 11 ± 0.65 | 5.531 ± 0.0077 |  | 5.83 ± 0.61 | 11.7 ± 0.71 | 6.72 ± 0.075 |
